Here are results for 6 compounds from patent US20240115729A1, “COMPOSITIONS AND METHODS FOR TARGETED ANTIFIBROTIC THERAPY IN CHRONIC PANCREATITIS” (University of Virginia Patent Foundation, priority 2021, published 2024).

The Log P is the decadic logarithm of the partition coefficient of the neutral form, usually between octanol and water.

Series [1] relates to caerulein-induced CP mice. The series is described as follows: Antifibrotic efficacy of targeted delivery of apigenin in caerulein-induced CP mice (H&E, picrosirius red, fibronectin). Particulars: CP mice pancreas after 3-week treatment; free drug 2 mg/kg oral 6 days per week, liposomes 6 mg/kg i.v. twice per week. The format is in vivo, mouse (C57BL/6J). On the procedure: Apigenin treatments lasted for 3 weeks for the remaining 3 weeks of caerulein induction. […] Pancreata were perfused, harvested, and paraffin-embedded for immunohistochemistry staining. Livers were perfused, harvested, and partially paraffin-embedded for histology staining. […] Singh et al., 2012). […] The quantification of picrosirius red was determined by Image J, using threshold applied on the red composites of the RGB images. […] Fibronectin expression was quantified using the positive pixel count function on QuPath software (Bankhead et al., 2017). […] Serum alanine aminotransferase (ALT) and blood urea nitrogen (BUN) were determined on […] 8008 Chemistry Analyzer (IDEXX, Westbrook, Maine, United States of America). […] To test the antifibrotic efficacy of targeted liposomes, we evaluated the pharmacodynamics of apigenin in the free drug form, encapsulated in non-targeted liposomes and in ECM liposomes (FIG. 11A). ECM liposomes without drug loading were included in the study as vehicle control. C57BL/6J mice were injected with caerulein 14 days before treatment started to establish inflammation in the pancreas. […] FIGS. 11D and 11G). […] FIGS. 11C and 11F).

For series [2] the following is noted: reported on PubChem; cited from earlier work.
Series [3] has as its target carboxypeptidase A1 (CPA1) (mouse) (UniProt Q7TPZ8). Kind of series: IF colocalization (JACoP) of VT680 phage with marker, CP mouse pancreas sections.
Sequence of UniProt Q7TPZ8 (Q7TPZ8 111-419): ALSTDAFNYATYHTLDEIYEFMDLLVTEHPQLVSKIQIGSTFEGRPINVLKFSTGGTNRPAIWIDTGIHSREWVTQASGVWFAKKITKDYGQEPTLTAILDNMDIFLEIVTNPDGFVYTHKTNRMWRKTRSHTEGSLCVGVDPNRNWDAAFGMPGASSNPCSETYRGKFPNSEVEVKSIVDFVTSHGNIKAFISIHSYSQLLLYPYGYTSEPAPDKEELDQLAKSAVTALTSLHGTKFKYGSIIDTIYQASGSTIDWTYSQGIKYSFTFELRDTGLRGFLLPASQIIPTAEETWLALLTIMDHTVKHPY
Another series addresses F4/80 (mouse) (UniProt Q61549). Described as above.
Sequence of UniProt Q61549 (Q61549 28-931): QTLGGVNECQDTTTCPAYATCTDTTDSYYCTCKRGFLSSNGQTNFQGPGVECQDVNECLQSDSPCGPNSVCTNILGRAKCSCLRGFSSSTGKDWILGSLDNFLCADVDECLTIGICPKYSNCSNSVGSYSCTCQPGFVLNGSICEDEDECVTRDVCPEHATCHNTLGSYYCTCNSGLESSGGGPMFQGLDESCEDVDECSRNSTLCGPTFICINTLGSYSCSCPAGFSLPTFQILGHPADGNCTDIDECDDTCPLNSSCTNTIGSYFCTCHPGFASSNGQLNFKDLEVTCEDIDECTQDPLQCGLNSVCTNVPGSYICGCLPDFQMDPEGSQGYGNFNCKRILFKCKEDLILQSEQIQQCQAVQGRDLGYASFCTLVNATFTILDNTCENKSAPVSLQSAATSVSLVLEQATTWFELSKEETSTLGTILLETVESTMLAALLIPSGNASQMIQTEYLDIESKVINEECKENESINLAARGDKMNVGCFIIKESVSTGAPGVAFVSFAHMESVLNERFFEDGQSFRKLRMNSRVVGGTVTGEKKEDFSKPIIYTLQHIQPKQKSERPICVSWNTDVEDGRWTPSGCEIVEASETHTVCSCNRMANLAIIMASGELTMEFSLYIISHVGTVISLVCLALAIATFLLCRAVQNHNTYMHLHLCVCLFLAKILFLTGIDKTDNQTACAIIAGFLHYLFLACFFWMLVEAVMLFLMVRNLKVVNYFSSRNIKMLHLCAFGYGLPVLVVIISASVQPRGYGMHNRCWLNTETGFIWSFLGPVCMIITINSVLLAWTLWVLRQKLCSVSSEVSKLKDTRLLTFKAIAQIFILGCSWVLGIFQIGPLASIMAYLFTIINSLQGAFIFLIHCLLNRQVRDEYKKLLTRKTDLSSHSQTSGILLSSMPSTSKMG
The target of series [4] is cytokeratin 7 (CK-7) (mouse) (UniProt Q9DCV7). The series is described as above.
Sequence of UniProt Q9DCV7 (Q9DCV7 2-457): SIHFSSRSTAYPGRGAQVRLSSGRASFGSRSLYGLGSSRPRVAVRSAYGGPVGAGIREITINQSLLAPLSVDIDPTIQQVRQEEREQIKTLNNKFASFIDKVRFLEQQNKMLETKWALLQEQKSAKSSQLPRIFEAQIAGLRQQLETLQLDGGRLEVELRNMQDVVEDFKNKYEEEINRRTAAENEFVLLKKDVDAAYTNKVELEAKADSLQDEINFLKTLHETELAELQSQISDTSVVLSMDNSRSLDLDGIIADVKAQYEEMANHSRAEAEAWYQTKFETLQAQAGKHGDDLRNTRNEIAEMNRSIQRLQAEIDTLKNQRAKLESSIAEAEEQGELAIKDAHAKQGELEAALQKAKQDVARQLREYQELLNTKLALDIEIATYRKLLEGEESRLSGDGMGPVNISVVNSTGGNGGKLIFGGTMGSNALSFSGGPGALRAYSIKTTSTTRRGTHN
A further series concerns the target CD31 (mouse) (UniProt Q08481). The description is as above.
Sequence of UniProt Q08481 (Q08481 18-727): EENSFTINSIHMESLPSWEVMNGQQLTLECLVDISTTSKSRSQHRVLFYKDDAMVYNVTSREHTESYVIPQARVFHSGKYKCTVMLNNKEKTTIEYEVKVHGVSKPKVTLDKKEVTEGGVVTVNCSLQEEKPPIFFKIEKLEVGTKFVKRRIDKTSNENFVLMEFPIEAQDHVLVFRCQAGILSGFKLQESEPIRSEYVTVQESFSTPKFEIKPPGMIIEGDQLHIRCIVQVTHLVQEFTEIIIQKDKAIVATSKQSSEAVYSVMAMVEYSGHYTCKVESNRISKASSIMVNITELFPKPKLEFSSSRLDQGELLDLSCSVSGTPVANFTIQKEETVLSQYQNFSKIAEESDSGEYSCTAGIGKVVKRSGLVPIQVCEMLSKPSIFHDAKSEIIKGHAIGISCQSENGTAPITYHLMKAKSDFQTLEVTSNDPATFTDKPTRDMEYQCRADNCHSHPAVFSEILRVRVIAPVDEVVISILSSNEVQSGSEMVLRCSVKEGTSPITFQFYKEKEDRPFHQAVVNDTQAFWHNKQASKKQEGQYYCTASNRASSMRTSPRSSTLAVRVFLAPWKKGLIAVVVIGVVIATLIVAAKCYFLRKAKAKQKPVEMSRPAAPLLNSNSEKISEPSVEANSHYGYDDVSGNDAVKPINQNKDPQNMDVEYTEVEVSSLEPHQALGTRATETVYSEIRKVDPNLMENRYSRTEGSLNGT
The target of a further series is collagen IIIa (mouse) (UniProt P08121). The description is as above.
Sequence of UniProt P08121 (P08121 155-1219): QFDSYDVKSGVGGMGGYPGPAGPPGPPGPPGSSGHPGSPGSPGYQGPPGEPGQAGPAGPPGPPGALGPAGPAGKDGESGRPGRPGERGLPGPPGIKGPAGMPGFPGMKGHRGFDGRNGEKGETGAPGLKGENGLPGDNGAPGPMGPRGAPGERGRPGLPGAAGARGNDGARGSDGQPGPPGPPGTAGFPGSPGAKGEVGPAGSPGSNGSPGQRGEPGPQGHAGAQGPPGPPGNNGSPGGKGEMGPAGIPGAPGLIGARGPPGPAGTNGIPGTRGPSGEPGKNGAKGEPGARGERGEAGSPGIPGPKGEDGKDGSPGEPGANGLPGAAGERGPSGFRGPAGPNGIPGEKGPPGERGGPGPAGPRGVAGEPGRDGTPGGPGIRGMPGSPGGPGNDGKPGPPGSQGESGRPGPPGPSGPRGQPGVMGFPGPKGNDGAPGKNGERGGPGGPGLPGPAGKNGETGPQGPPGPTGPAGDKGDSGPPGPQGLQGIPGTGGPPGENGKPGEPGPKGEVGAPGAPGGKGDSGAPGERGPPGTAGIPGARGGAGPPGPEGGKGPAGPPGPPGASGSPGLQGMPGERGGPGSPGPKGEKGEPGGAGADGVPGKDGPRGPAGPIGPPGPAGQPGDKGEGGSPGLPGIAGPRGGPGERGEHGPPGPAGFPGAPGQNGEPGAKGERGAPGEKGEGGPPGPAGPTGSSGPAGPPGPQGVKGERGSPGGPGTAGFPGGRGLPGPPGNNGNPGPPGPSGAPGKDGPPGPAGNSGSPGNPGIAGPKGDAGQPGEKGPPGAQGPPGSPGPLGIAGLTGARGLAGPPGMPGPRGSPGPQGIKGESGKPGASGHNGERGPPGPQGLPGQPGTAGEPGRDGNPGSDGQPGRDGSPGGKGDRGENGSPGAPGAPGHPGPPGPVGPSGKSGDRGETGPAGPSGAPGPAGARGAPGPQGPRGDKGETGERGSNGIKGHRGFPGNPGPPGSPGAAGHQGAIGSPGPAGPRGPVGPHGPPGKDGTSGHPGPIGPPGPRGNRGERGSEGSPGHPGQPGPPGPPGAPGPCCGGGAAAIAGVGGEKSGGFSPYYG

Consider `O=c1cc(-c2ccc(O)cc2)oc2cc(O)cc(O)c12` [Apigenin, 4′,5,7-trihydroxyflavone], for which the “collagen deposition (Picrosirius red-positive area)” value in series [1] is listed as 24.90 % area. For the same compound, in series [2], the “Charge (ph 7.4)” value is recorded as 0, the log partition coefficient (Log P) is 1.7, the “Water Solubility” value was 183 mg/mL and the pKa1 is listed as 7.12. The pKa2 in series [2] is reported as 8.10.
As to “HPYSPLR (SEQ ID NO: 11) phage clone (peptide)”, the mean Manders' correlation coefficient (MCC), fraction of phage overlapping cell marker in series [3] is 0.25; with F4/80 (mouse), 0.41; in series [4] it was 0.08; in the series with CD31 (mouse), 0.35; in the series with collagen IIIa (mouse), 0.27.
As for “KTYVPTT (SEQ ID NO: 14) phage clone (peptide)”, the mean Manders' correlation coefficient (MCC), fraction of phage overlapping cell marker in series [3] was 0.26; with F4/80 (mouse), 0.31; in series [4], 0.06; with CD31 (mouse) it was 0.2; in the series with collagen IIIa (mouse), 0.23.
On the same counts, the results for “MNSIAIP (SEQ ID NO: 20) phage clone (peptide)” are 0.63, 0.37, 0.05, 0.24 and 0.34.
“SLPLGPM (SEQ ID NO: 26) phage clone (peptide)”: the mean Manders' correlation coefficient (MCC), fraction of phage overlapping cell marker in series [3] was 0.35; with F4/80 (mouse), 0.49; in series [4], 0.06; with CD31 (mouse) it was 0.25; in the series with collagen IIIa (mouse) it was 0.23.
As for “SNSQDLH (SEQ ID NO: 28) phage clone (peptide)”, the mean Manders' correlation coefficient (MCC), fraction of phage overlapping cell marker in series [3] stood at 0.23; with F4/80 (mouse), 0.8; in series [4], 0.14; in the series with CD31 (mouse), 0.12; in the series with collagen IIIa (mouse), 0.33.
